Our source for the EC50, IC50 and Kd values is patent US20220031842A1 (JIANGSU HENGRUI MEDICINE, published 2022).

By EC50 is commonly meant the concentration needed to bring the measured effect to its halfway point. Low readings indicate higher potency in that assay, high ones lower potency in that assay. Broadly, the IC50 is the midpoint of a concentration-inhibition curve. Higher therefore signals weaker potency in that assay. Usually Kd stands for the concentration at which binding is half-saturated.

Test [1] concerns the target T1, Fusion protein of LAG-3 extracellular region and mIgG2a Fc (human).
T1 construct: Limits of the signal peptide are marked only by lost underlining; also called LAG-3-mFc; LAG-3-mFc fusion protein
T1 chain: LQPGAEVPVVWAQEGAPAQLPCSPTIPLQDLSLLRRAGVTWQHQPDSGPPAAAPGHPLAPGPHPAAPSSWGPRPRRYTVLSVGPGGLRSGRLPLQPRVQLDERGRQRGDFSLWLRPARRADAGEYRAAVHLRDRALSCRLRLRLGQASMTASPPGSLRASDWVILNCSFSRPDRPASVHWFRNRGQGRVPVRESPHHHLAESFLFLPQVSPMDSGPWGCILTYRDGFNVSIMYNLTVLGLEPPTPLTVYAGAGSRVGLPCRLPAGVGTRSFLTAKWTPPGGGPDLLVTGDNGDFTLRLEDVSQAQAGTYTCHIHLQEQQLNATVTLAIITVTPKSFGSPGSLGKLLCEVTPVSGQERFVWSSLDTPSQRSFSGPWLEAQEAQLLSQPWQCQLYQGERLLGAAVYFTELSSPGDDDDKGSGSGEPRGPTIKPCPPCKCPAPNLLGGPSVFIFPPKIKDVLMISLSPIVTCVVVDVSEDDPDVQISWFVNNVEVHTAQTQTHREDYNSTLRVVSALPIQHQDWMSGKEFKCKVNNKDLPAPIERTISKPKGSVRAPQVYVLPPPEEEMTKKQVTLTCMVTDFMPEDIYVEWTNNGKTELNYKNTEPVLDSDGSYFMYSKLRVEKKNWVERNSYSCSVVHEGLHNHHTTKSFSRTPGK
The test is described as follows: ELISA, LAG-3-mFc captured by anti-mouse Fc on plate (which fusion: inferred). From the text:
The binding ability of anti-LAG-3 antibody to human LAG-3 protein was detected by ELISA assay. LAG-3 fusion protein with Fc or mFc tag was immobilized into 96-well microtiter plate by binding to anti-Fc or anti-mFc antibody coated on the microtiter plate, the strength of the signal after the addition of the antibody was used to determine the binding activity of the antibody to LAG-3, the specific experimental method is as follows.
The goat anti-human Fc antibody (Jackson Immuno Research, Cat No. 109-005-008) or goat anti-mouse Fc antibody (Sigma, Cat No. M3534-1ML) was diluted to a concentration of 2 μg/ml with PBS buffer at pH 7.4 (Sigma, Cat No. P4417-100TAB), and added to a 96-well plate at a volume of 50 μl/well and then, the plate was incubated in the incubator at 37° C. for 2 hours. After discarding the liquid, the plates were blocked with 200 μl/well of blocking solution containing 5% skim milk (Bright Dairy, skim milk powder) in PBS, and incubated in the incubator at 37° C. for 2.5 hours or overnight at 4° C. (16-18 hours). After blocking, the blocking solution was discarded and the plate was washed 5 times with PBST buffer (PH7.4 PBS containing 0.05% tween-20). LAG-3-Fc fusion protein (SEQ ID NO:3, produced in-house) or LAG-3-mFc fusion protein (SEQ ID NO: 4, produced in-house) was diluted with sample diluent (PH7.4 PBS containing 1% BSA) to 1 μg/ml and was added to each well, 50 μl/well. Then the plate was incubated in the incubator at 37° C. for 1 h or overnight at 4° C. After incubation, the reaction solution in the plate was discarded, and the plate was washed with PBST for 6 times, and then was added with 50 μl/well of various concentrations of antibodies to be tested (hybridoma purified antibody or humanized antibody) which have been diluted with sample diluent, and the plate was incubated at 37° C. for 1 h. The plates was washed 5 times with PBST after incubation, and was added with 100 μl/well of goat anti-mouse (Jackson Immuno Research, Cat No. 115-035-003) or goat anti-human secondary antibody (Jackson Immuno Research, Cat No. 109-035-003) labeled with HRP, diluted in sample diluent, and the plate was incubated at 37° C. for 1 h.
Background: An ELISA detects its analyte on a solid surface through an enzyme-linked reagent.

For test [2], the target named is T2, Fusion protein of LAG-3 extracellular region and hIgG1 Fc (human).
T2 construct: Limits of the signal peptide are marked only by lost underlining; also called LAG-3-Fc; LAG-3-Fc fusion protein
The test is described as follows: competition: biotin-LAG-3-Fc binding to fixed Daudi cells, antibody titrated. As for the experimental part: Daudi cells (human leukemia cells, purchased from the cell bank in Chinese Academy of Sciences) were seeded in 96-well plate with a density of 3×10⁵/well. After centrifugation at 1000 rpm, the supernatant was discarded and then the plate was fixed with 4% PFA for 30 min at room temperature. The plate was washed 4 times with PBS after discarding the fixed solution, and the plate was blocked with 200 μl/well of blocking solution containing 5% skim milk (Bright Dairy, skim milk powder) diluted in PBS, and incubated at 37° C. for 2.5 hours. After blocking, the blocking solution was discarded and the plate was washed 5 times with PBST buffer (pH7.4 PBS containing 0.05% tween-20), added with 50 μl/well mixture of biotin-labeled (Biotin labeling kit, Dojindo Chemical, Cat No. LK03) LAG-3-Fc fusion protein (produced in-house, SEQ ID NO: 3) and gradient concentrations of the antibody to be tested, wherein the biotin-labeled LAG-3-Fc fusion protein has been diluted with sample diluent (PH7.4 PBS containing 1% BSA) at a final concentration of 0.4 μg/ml, and pre-mixed for an hour, then the plate was incubated at 37° C. for 1 h. The reaction solution was discarded and the plate was washed 5 times with PBST after incubation, 50 μl/well of HRP-labeled Streptavidin (Sigma, Cat No. 52438) diluted with sample diluent was added, and the plate was incubated at 37° C. for 1 h. After washing the plate 5 times with PBST, 50 μl/well of TMB chromogenic substrate (KPL, Cat No. 52-00-03) was added to each well, and incubated at room temperature for 5-15 min, the reaction was stopped by the addition of 50 μl 1M H₂SO₄ to each well. The OD value at a wavelength of 450 nm was read on NOVOStar microplate reader, and then the activity of the LAG-3 antibody in blocking the binding of the antigen to Daudi cells was calculated.

In test [3] the target is T3, LAG-3 extracellular domain with a Flag tag (human, UniProt P18627 23-434).
T3 construct: also called LAG-3-Flag; LAG-3-Flag antigen
T3 sequence: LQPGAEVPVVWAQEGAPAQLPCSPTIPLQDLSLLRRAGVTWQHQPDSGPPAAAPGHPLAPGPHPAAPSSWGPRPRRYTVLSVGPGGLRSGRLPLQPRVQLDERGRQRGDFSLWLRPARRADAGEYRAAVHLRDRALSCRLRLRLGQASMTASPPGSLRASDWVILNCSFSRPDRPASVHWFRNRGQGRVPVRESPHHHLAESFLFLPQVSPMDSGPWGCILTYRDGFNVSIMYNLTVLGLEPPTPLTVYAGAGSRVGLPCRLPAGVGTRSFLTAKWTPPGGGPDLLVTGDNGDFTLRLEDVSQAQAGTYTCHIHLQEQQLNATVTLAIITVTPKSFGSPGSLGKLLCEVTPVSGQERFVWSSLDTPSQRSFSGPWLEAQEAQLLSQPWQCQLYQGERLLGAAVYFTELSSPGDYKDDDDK
The test is described as follows: SPR (Biacore), antibody captured on anti-human capture chip, LAG-3-Flag in flow. From the text:
2. […] Then, the LAG-3-Flag antigen (produced in-house, SEQ ID NO:1) was flowed through the surface of the biochip, and the reaction signal was detected real time using a Biacore instrument to obtain the binding and dissociation curves, the value of affinity was obtained by fitting, see table 10 below. After each cycle of dissociation was finished in the experiment, the biochip was washed and regenerated with a regeneration solution provided in the human anti-capture kit.
(SPR reads the build-up and loss of mass on a sensor chip optically.)

T2 sequence (chain, as listed by the source limits assumed): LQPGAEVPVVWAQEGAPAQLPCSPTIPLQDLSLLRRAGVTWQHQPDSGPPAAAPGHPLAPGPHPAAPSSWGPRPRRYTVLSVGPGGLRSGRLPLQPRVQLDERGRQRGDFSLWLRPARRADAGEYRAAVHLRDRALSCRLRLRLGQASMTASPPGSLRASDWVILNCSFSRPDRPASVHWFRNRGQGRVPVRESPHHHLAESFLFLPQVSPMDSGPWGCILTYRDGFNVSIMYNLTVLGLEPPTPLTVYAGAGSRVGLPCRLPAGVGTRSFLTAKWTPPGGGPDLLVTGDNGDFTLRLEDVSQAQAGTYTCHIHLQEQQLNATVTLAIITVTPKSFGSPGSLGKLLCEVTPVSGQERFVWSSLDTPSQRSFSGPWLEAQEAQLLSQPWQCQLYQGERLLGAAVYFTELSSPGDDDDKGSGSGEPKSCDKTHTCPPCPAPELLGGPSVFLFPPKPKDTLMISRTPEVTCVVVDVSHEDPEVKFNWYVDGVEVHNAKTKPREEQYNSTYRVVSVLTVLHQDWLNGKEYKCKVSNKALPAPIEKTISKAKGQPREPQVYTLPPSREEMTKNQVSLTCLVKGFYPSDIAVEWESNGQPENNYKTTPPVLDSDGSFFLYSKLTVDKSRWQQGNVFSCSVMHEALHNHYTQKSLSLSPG

B1: Hu303-010 (antibody, human IgG4 S228P, kappa, V domains shown)
VH: QVQLVQSGAEVKKPGASVKVSCKASGYTFTDYYMNWVRQAPGQRLEWMGVINPYNGDTAYNQKFKGRVTITVDKSASTAYMELSSLRSEDTAVYYCTRDDGYYDYYFDVWGQGTTVTVSS
VL: DIQMTQSPSSLSASVGDRVTITCRASQDIGSRLNWYQQKPGKAPKRLIYATSTLDSGVPSRFSGSRSGTDFTLTISSLQPEDFATYYCLQLASSPPTFGGGTKVEIKR
notes: Humanized mAb303
Consider B1, for which the EC50 in test [1] stood at 0.137 nM. For the same molecule, the IC50 in test [2] amounted to 0.346 nM. The molecule also returned a Kd in test [3] of 0.147 nM.

B2: Hu229-014 (antibody, human IgG4 S228P, kappa, V domains shown)
VH: QVQLVQSGSELKKPGASVKVSCKASGYTFTTSGMSWVKQAPGQGLKWMGWINTYSGVPTYADDFKGRFVFSLDTSVSTAYLQISSLKAEDTATYYCARDNYDARDVYYYAMDYWGQGTTVTVSS
VL: DIQMTQSPSSLSASVGDRVTITCRASENIYSNLAWYQQKPGKAPKLLVYAATNLADGVPSRFSGSGSGTQYTLTISSLQPEDFATYYCQHFWITPWTFGGGTKVEIKR
notes: Humanized mAb229
Turning to B2, the EC50 in test [1] worked out at 0.153 nM. This molecule also had an IC50 in test [2] of 0.718 nM. This molecule also registered a Kd in test [3] of 0.0374 nM.

B3: Hu229-013 (antibody, human IgG4 S228P, kappa, V domains shown)
VH: QVQLVQSGSELKKPGASVKVSCKASGYTFTTSGMSWVKQAPGQGLKWMGWINTYSGVPTYADDFKGRFVFSLDTSVSTAYLQISSLKAEDTATYYCARDNYDARDVYYYAMDYWGQGTTVTVSS
VL: DIQMTQSPSSLSASVGDRVTITCRASENIYSNLAWYQQKPGKAPKLLVYAATNLADGVPSRFSGSGSGTDYTLTISSLQPEDFATYYCQHFWITPWTFGGGTKVEIKR
notes: also called LAG-3 antibody Hu229-013; LAG3 antibody Hu229-013
B3 showed an EC50 in test [1] of 0.106 nM. The IC50 in test [2] was determined as 0.39 nM. In test [3], this molecule yielded a Kd of 0.0281 nM.

B4: Hu229-015 (antibody, human IgG4 S228P, kappa, V domains shown)
VH: QVQLVQSGSELKKPGASVKVSCKASGYTFTTSGMSWVKQAPGQGLKWMGWINTYSGVPTYADDFKGRFVFSLDTSVSTAYLQISSLKAEDTATYYCARDNYDARDVYYYAMDYWGQGTTVTVSS
VL: DIQMTQSPSSLSASVGDRVTITCRASENIYSNLAWYQQKPGKSPKLLVYAATNLADGVPSRFSGSGSGTQYTLTISSLQPEDFATYYCQHFWITPWTFGGGTKVEIKR
notes: Humanized mAb229
In test [1], B4 yielded an EC50 of 0.156 nM. The same molecule came in with an IC50 in test [2] of 0.808 nM. Moreover, the Kd in test [3] came to 0.0459 nM.

B5: Hu229-010 (antibody, human IgG4 S228P, kappa, V domains shown)
VH: QVQLVQSGSELKKPGASVKVSCKASGYTFTTSGMSWVRQAPGQGLKWMGWINTYSGVPTYADDFKGRFVFSLDTSVSTAYLQISSLKAEDTAVYYCARDNYDARDVYYYAMDYWGQGTTVTVSS
VL: DIQMTQSPSSLSASVGDRVTITCRASENIYSNLAWYQQKPGKAPKLLVYAATNLADGVPSRFSGSGSGTQYTLTISSLQPEDFATYYCQHFWITPWTFGGGTKVEIKR
notes: Humanized mAb229
As for B5, the EC50 in test [1] was determined as 0.174 nM. For the same molecule, in test [2], the IC50 came out at 0.453 nM. Further, binding in test [3] was characterised by a dissociation constant (Kd) of 0.0382 nM.

B6: Hu229-019 (antibody, human IgG4 S228P, kappa, V domains shown)
VH: QVQLVQSGSELKKPGASVKVSCKASGYTFTTSGMSWVKQAPGQGLKWMGWINTYSGVPTYADDFKGRFVFSLDTSVSTAYLQISSLKAEDTATYFCARDNYDARDVYYYAMDYWGQGTTVTVSS
VL: DIQMTQSPSSLSASVGDRVTITCRASENIYSNLAWYQQKPGKSPKLLVYAATNLADGVPSRFSGSGSGTQYTLTISSLQPEDFATYYCQHFWITPWTFGGGTKVEIKR
notes: Humanized mAb229
In turn, B6 gave an EC50 in test [1] of 0.068 nM. The molecule also yielded an IC50 in test [2] of 0.289 nM. In test [3], this molecule yielded a Kd of 0.0729 nM.

B7: Hu229-009 (antibody, human IgG4 S228P, kappa, V domains shown)
VH: QVQLVQSGSELKKPGASVKVSCKASGYTFTTSGMSWVRQAPGQGLKWMGWINTYSGVPTYADDFKGRFVFSLDTSVSTAYLQISSLKAEDTAVYYCARDNYDARDVYYYAMDYWGQGTTVTVSS
VL: DIQMTQSPSSLSASVGDRVTITCRASENIYSNLAWYQQKPGKAPKLLVYAATNLADGVPSRFSGSGSGTDYTLTISSLQPEDFATYYCQHFWITPWTFGGGTKVEIKR
notes: Humanized mAb229
On to B7, for which it took 0.152 nM to reach a half-maximal effect in test [1] (EC50). Further, the IC50 in test [2] came to 0.559 nM. The molecule further had a Kd in test [3] of 0.0488 nM.

B8: Hu229-017 (antibody, human IgG4 S228P, kappa, V domains shown)
VH: QVQLVQSGSELKKPGASVKVSCKASGYTFTTSGMSWVKQAPGQGLKWMGWINTYSGVPTYADDFKGRFVFSLDTSVSTAYLQISSLKAEDTATYFCARDNYDARDVYYYAMDYWGQGTTVTVSS
VL: DIQMTQSPSSLSASVGDRVTITCRASENIYSNLAWYQQKPGKAPKLLVYAATNLADGVPSRFSGSGSGTDYTLTISSLQPEDFATYYCQHFWITPWTFGGGTKVEIKR
notes: Humanized mAb229
With B8, in test [1], the EC50 is 0.048 nM. Further, in test [2], the IC50 was 0.239 nM. The same molecule gave a Kd in test [3] of 0.0671 nM.
